{"source": "patent US10253086B2", "about": "“CD20 therapies, CD22 therapies, and combination therapies with a CD19 chimeric antigen receptor (CAR)-expressing cell” (Novartis AG, priority 2015, dated 2019)", "molecules": {"B1": {"name": "CD19-CD22: bispecific scFv tandem fusion CAR, humanized anti-CD19 (104876) and hCD22-2 (protein)", "scFv": "EIVMTQSPATLSLSPGERATLSCRASQDISKYLNWYQQKPGQAPRLLIYHTSRLHSGIPARFSGSGSGTDYTLTISSLQPEDFAVYFCQQGNTLPYTFGQGTKLEIKGGGGSGGGGSGGGGSQVQLQESGPGLVKPSETLSLTCTVSGVSLPDYGVSWIRQPPGKGLEWIGVIWGSETTYYQSSLKSRVTISKDNSKNQVSLKLSSVTAADTAVYYCAKHYYYGGSYAMDYWGQGTLVTVSSGGGGSGGGGSGGGGSGGGGSEVQLQQSGPGLVKPSQTLSLTCAISGDSVSSNSAAWNWIRQSPSRGLEWLGRTYYRSKWYNDYAVSVKSRITINPDTSKNQFSLQLNSVTPEDTAVYYCARDLGWIAVAGTFDYWGQGTLVTVSSGGGGSGGGGSGGGGSQSALTQPASVSGSPGQSITISCTGTSSDVGGYNYVSWYQQHPGKAPKLMIYDVSKRPSGVSNRFSGSKSGNTASLTISGLQAEDEADYYCSSYTSSSLNHVFGTGTKVTVLT"}, "B2": {"name": "CD22-CD19: bispecific scFv tandem fusion CAR, hCD22-2 and humanized anti-CD19 (104876) (protein)", "scFv": "EVQLQQSGPGLVKPSQTLSLTCAISGDSVSSNSAAWNWIRQSPSRGLEWLGRTYYRSKWYNDYAVSVKSRITINPDTSKNQFSLQLNSVTPEDTAVYYCARDLGWIAVAGTFDYWGQGTLVTVSSGGGGSGGGGSGGGGSQSALTQPASVSGSPGQSITISCTGTSSDVGGYNYVSWYQQHPGKAPKLMIYDVSKRPSGVSNRFSGSKSGNTASLTISGLQAEDEADYYCSSYTSSSLNHVFGTGTKVTVLTGGGGSGGGGSGGGGSGGGGSEIVMTQSPATLSLSPGERATLSCRASQDISKYLNWYQQKPGQAPRLLIYHTSRLHSGIPARFSGSGSGTDYTLTISSLQPEDFAVYFCQQGNTLPYTFGQGTKLEIKGGGGSGGGGSGGGGSQVQLQESGPGLVKPSETLSLTCTVSGVSLPDYGVSWIRQPPGKGLEWIGVIWGSETTYYQSSLKSRVTISKDNSKNQVSLKLSSVTAADTAVYYCAKHYYYGGSYAMDYWGQGTLVTVSS"}, "B3": {"name": "NVS 3: human anti-human CD123 clone expressing CAR123-3 (antibody, V domains shown)", "VH": "QVQLVQSGAEVKKPGASVKVSCKASGYIFTGYYIHWVRQAPGQGLEWMGWINPNSGGTNYAQKFQGRVTMTRDTSISTAYMELSGLRSDDPAVYYCARDMNILATVPFDIWGQGTLVTVSS", "VL": "DIQLTQSPSSLSASVGDRVTITCRASQSISSYLNWYQQKPGKAPKLLIYAASSLQSGVPSRFSGSGSGTDFTLTVNSLQPEDFATYYCQQGDSVPLTFGGGTKVEIK"}, "B4": {"name": "NVS 4: human anti-human CD123 clone expressing CAR123-4 (antibody, V domains shown)", "VH": "QVQLQQSGAEVKKSGASVKVSCKASGYTFTDYYMHWLRQAPGQGLEWMGWINPNSGDTNYAQKFQGRVTLTRDTSISTVYMELSRLRSDDTAVYYCARDMNILATVPFDIWGQGTMVTVSS", "VL": "B3 VL with L4M, V75I, N76S"}, "B5": {"name": "CD22-12: human CD22 CAR, parent of CD22-64 and CD22-65 (protein)", "scFv": "EVQLQQSGPGLVKPSQTLSLTCAISGDSVLSNSDTWNWIRQSPSRGLEWLGRTYHRSTWYDDYASSVRGRVSINVDTSKNQYSLQLNAVTPEDTGVYYCARDRLQDGNSWSDAFDVWGQGTMVTVSSGGGGSGGGGSGGGGSQSALTQPASASGSPGQSVTISCTGTSSDVGGYNYVSWYQQHPGKAPKLMIYDVSNRPSGVSNRFSGSKSGNTASLTISGLQAEDEADYYCSSYTSSSTLYVFGTGTQLTVL"}, "B6": {"name": "IL-7: exogenous recombinant human IL-7 (protein, UniProt P13232 26-177, looked up)", "Interleukin-7": "DCDIEGKDGKQYESVLMVSIDQLLDSMKEIGSNCLNNEFNFFKRHICDANKEGMFLFRAARKLRQFLKMNSTGDFDLHLLKVSEGTTILLNCTGQVKGRKPAALGEAQPTKSLEENKSLKEQKKLNDLCFLKRLLQEIKTCWNKILMGTKEH"}}, "key": {"[1]": {"system": "CD19 and CD22", "test": "NFAT assay of bispecific CAR19/CAR22 constructs", "type": "cell-based", "protocol": "The bispecific CD19-CD22 and CD22-CD19 constructs described above were tested in an NFAT assay, as described in the Examples below. As controls, an anti-CD19 alone CAR and an anti-CD22 alone CAR were used."}, "[2]": {"system": "cynomolgus CD123", "test": "Cross-reactivity of anti-CD123 clones with cynomolgus CD123", "type": "binding", "excerpt": "Their activity was compared against mouse clones 1172 and 1176, comprising the VH and VL domains in a light-to-heavy orientation with a CD8 hinge domain, CD8 transmembrane domain, and 41BB-costimulatory domain. […] 1172 is not."}, "[3]": {"target": "recombinant human CD22-Fc (Homo sapiens, UniProt P20273)", "test": "Surface expression of CD22 CAR in primary human T-cells (Protein-L, rhCD22-Fc)", "type": "cell-based", "conditions": "day 10, flow cytometry", "protocol": "Primary human T-cells were activated with anti-CD3/antiCD28 stimulatory beads on day 0, followed by lentiviral transduction of specified CAR constructs on day 1. Cells were expanded in vitro until day, 10 at which point they were analyzed by flow cytometry for surface expression of CAR. Two different approaches were utilized to determine surface expression of CAR: Protein-L-biotin followed by streptavidin-PE, and recombinant human CD22-Fc followed by anti-Fc-alexafluor 488. […] CD22 CAR m971 served as a positive control for binding both Protein-L and hrCD22-Fc, and Isotype CAR with no specificity (anti-gH) served as a positive control for Protein-L. T cells expressing no CAR were used as a negative control."}, "[4]": {"system": "CD22", "test": "NFAT assay of CD22 CAR in JNL cells on antigen-coated plates", "type": "cell-based, human", "protocol": "Several CD22 CAR constructs were functionally validated in an NFAT assay. Briefly the experiments were performed as follows. A lentiviral vector (pELPS) carrying a nucleic acid, encoding a CD22 CAR with a CD22-binding scFv domain was introduced by electroporation into a Jurkat T cell line modified to express luciferase under the control of an NFAT response element (JNL). The cells were cultured and allowed to express the CAR construct. The electroporated cells were applied to a plate coated with the target antigen (CD22). Detection of luciferase signal in the coated plate was indicative of binding activity of the CD22 CAR to its antigen, leading to activation of the T cells and expression of luciferase.\nThe results also indicate that the different scFvs compete with m971 to different extents.\nFIG. 72 is a graph showing the activation (in RLU) of several CD22 CAR-expressing JNL cells including CD22-57, CD22-58, CD22-59, CD22-60, CD22-61, CD22-62, and CD22-63, the scFv sequences of which are provided herein. Three different target proteins (CD22-FL-Fc, CD22-D567-Fc, and CD22-D67) were used to coat the tissue culture plates; a negative control (Fc) was also included. A mesothelin binding CAR (Meso-G07) was used as a negative control. CD22-12 and CD22-53 were used as positive controls. […] Domain mapping was performed on CD22 binding domains. Three different forms of antigens were used: CD22 full-length with all 7 external domains, Domain567 (in which domains 1-4 were deleted) and Domain67 (in which domains 1-5 were deleted). While not wishing to be bound by theory, it appears that the binding of various CD22 clones maps to the epitopes illustrated in FIG. 75.\nTwo scFvs, named CD22-64 and CD22-65, were produced by affinity maturation of hCD22-12. CAR constructs containing these scFvs were tested for activity in an NFAT assay as described above. […] The bars in the figure represent, from left to right, CD22 full length-Fc; CD22 D567-Fc; and an Fc only negative control used for coating of the plates."}, "[5]": {"system": "Raji, SEM, K562-hCD22, Daudi, and Nalm6", "test": "Primary T-cell tumor target killing assay", "type": "cell-based, human", "excerpt": "Primary T-cells activated and transduced as described above were mixed with target cell lines stably expressing luciferase at the ratios indicated (FIG. 20A-20F). […] Untransduced T-cells (UTD) lacked the ability to kill target cell lines."}, "[6]": {"system": "Raji-Luc and Daudi-Luc", "test": "IFN-gamma and IL-2 secretion by CD22 CAR primary T cells", "type": "cell-based, human", "conditions": "E:T 10 to 1, 20-hr co-culture", "protocol": "CD22 CAR constructs were also tested for the ability to promote secretion of IFN-gamma and IL-2. Briefly, transduced primary T cells from healthy donors expressing the different CD22 CARs were co-cultured with the CD22-positive target cells Raji-Luc and Daudi-Luc as well as the negative control K562-Luc. T cells and target cell were cultured in an effector-to-target cell ratio (E:T) of 10 to 1. Supernatants were harvested after 20-hr co-culture. […] Similar results were observed when Nalm6-Luc, Pfeiffer-Luc, and K562-CD22-Luc, and SEM-Luc cells were tested (data not shown). Minimal IFN-gamma secretion was observed when the K562-Luc negative control cell line was tested (bottom panel)."}, "[7]": {"system": "luciferase-expressing mantle cell line (RL luc)", "test": "RL luc mantle cell lymphoma xenograft, CART19 with exogenous IL-7", "type": "in vivo, NSG mice", "protocol": "Next, the effect of exogenous IL-7 treatment on anti-tumor activity of CART19 cells was assessed in a lymphoma animal model. NSG mice were engrafted with a luciferase-expressing mantle cell line (RL luc) on Day 0 (D0), followed by treatment of CART19 cells on Day 6. The NSG mice were divided into groups, where one group received no CART19 cells, a second group received 0.5×10^6 CART19 cells, a third group received 1×10^6 CART19 cells, and a fourth group received 2×10^6 CART19 cells. Tumor size was monitored by measuring the mean bioluminescence of the engrafted tumors over more than 80 days. […] When comparing the tumor burden of mice that received IL-7 treatment to control, before and after IL-7 treatment, tumor reduction in tumor burden was only seen in the mice that had received IL-7 treatment (FIG. 10C).\nT cell dynamics following IL-7 treatment in the lymphoma animal model was also examined. Human CART19 cells were not detectable in the blood prior to IL-7 treatment. […] The extent of T cell expansion observed in mice receiving the IL-7 also correlated with tumor response. The mouse with the highest number of T cells detected in the blood at peak expansion during IL-7 treatment (mouse #3815) had the most robust reduction in tumor burden (see FIG. 10B). Moreover, the time of peak expansion correlated with the T cell dose injected as baseline. The number/level CD3-expressing cells in the blood were also measured before and after IL-7 treatment."}}, "note": "Where a chain is given by its changes, count along the chain named."}
{"molecule": "B1", "values": [{"measurement": "activity in NFAT assay", "setting": "[1]", "result": "active against their targets"}]}
{"molecule": "B2", "values": [{"measurement": "activity in NFAT assay", "setting": "[1]", "result": "active against their targets"}]}
{"molecule": "B3", "values": [{"measurement": "cross-reactivity against cynomolgus CD123", "setting": "[2]", "result": "cross-reactive against cynomolgus CD123"}]}
{"molecule": "B4", "values": [{"measurement": "cross-reactivity against cynomolgus CD123", "setting": "[2]", "result": "cross-reactive against cynomolgus CD123"}]}
{"molecule": "B5", "values": [{"measurement": "surface expression of CAR", "setting": "[3]", "result": "positive surface expression"}, {"measurement": "activity (see Example 25)", "setting": "[4]", "result": "found to have activity"}, {"measurement": "antigen binding / activation (RLU) vs m971", "setting": "[4]; with and without m971 scFv competitor", "result": "bind the antigen approximately as well as the m971 positive control"}, {"measurement": "activity in cell killing and cytokine secretion assays (Example 9)", "setting": "[5]", "result": "activity comparable to m971"}, {"measurement": "target cell killing", "setting": "[5]; CD22 expressing luciferase target cell lines", "result": "dose-dependent target cell killing"}, {"measurement": "IFN-gamma secretion", "setting": "[6]", "result": "induced IFN-gamma secretion"}]}
{"molecule": "B6", "values": [{"measurement": "reduction in tumor burden", "setting": "[7]; IL-7 200 ng/mouse i.p. three times weekly from Day 85, mice with suboptimal CART19 response", "result": "1-3 log"}, {"measurement": "CD3-expressing cells in the blood", "setting": "[7]; after IL-7 treatment vs control mice", "result": "significant increase in CD3+ cells"}, {"measurement": "numbers of T cells in blood", "setting": "[7]; upon IL-7 treatment", "result": "rapid, but variable increase in the numbers of T cells"}]}
